Consider 22 molecules from patent US20210002644, “ANTI-CHYMASE APTAMER AND USE FOR SAME” (RIBOMIC INC., published 2021).

T1: chymase (native, human skin mast cell) (Homo sapiens, UniProt P23946 P23946:22-247)
T1 sequence: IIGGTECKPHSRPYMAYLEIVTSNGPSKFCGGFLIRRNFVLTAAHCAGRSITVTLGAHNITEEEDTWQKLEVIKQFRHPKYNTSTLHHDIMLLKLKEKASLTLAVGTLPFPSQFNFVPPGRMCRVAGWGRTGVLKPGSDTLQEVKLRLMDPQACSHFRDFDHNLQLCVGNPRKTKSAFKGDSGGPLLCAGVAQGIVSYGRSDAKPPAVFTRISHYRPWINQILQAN

B1: SEQ ID NO: 33(11) (mixed)
RNA: AUGAUCGGACAUAACUAAUUAGGGGUGUCAA
modifications: idT-A(M)U(M)G(M)A(M)U(F)C(F)G(M)G(M)A(M)C(M)A(M)U(M)AAC(M)U(F)A(M)A(M)TU(M)A(M)G(M)GG(M)G(M)TG(M)U(M)C(M)A(M)A(M)-idT (F=2'-F, M=2'-OMe)
B2: SEQ ID NO: 33(2) (mixed)
RNA: B1 RNA
modifications: idT-A(M)U(M)G(M)A(M)U(F)C(F)G(M)G(M)A(M)C(F)A(M)U(M)AAC(M)U(F)AAU(F)U(M)AG(M)GG(M)G(M)TG(M)TC(M)A(M)A(M)-idT (F=2'-F, M=2'-OMe)
B3: SEQ ID NO: 33(10) (mixed)
RNA: B1 RNA
modifications: idT-A(M)U(M)G(M)A(M)U(F)C(F)G(M)G(M)A(M)C(M)A(M)U(M)AAC(M)TA(M)A(M)U(M)U(M)A(M)G(M)GG(M)G(M)TG(M)U(M)C(M)A(M)A(M)-idT (F=2'-F, M=2'-OMe)
B4: SEQ ID NO: 33(16) (mixed)
RNA: B1 RNA
modifications: idT-A(M)U(M)G(M)A(M)U(F)C(F)G(M)G(M)A(M)C(M)A(M)U(M)AAC(M)U(F)A(M)A(M)U(M)U(M)A(M)G(M)GG(M)G(M)T(M)G(M)U(M)C(M)A(M)A(M)-idT (F=2'-F, M=2'-OMe)
B5: SEQ ID NO: 33(6) (mixed)
RNA: B1 RNA
modifications: idT-A(M)U(M)G(M)A(M)U(F)C(F)G(M)G(M)A(M)C(F)A(M)U(M)AAC(M)U(F)A(M)A(M)U(M)U(M)A(M)G(M)GG(M)G(M)TG(M)U(M)C(M)A(M)A(M)-idT (F=2'-F, M=2'-OMe)
B6: SEQ ID NO: 33(14) (mixed)
RNA: B1 RNA
modifications: idT-A(M)U(M)G(M)A(M)U(F)C(F)G(M)G(M)A(M)C(M)A(M)U(M)AAC(M)U(F)A(M)A(M)T(M)U(M)A(M)G(M)GG(M)G(M)TG(M)U(M)C(M)A(M)A(M)-idT (F=2'-F, M=2'-OMe)
B7: SEQ ID NO: 33(13) (mixed)
RNA: B1 RNA
modifications: idT-A(M)U(M)G(M)A(M)U(F)C(F)G(M)G(M)A(M)C(M)A(M)U(M)AAC(M)T(M)A(M)A(M)U(M)U(M)A(M)G(M)GG(M)G(M)TG(M)U(M)C(M)A(M)A(M)-idT (F=2'-F, M=2'-OMe)
B8: SEQ ID NO: 33(8) (mixed)
RNA: B1 RNA
modifications: idT-A(M)U(M)G(M)A(M)U(F)C(F)G(M)G(M)A(M)C(M)A(M)U(M)AA(M)C(M)U(F)A(M)A(M)U(M)U(M)A(M)G(M)GG(M)G(M)TG(M)U(M)C(M)A(M)A(M)-idT (F=2'-F, M=2'-OMe)
B9: SEQ ID NO: 33(4) (mixed)
RNA: B1 RNA
modifications: idT-A(PHE)U(M)G(M)A(M)U(F)C(F)G(M)G(M)A(M)C(F)A(M)U(M)AAC(M)U(F)A(M)A(M)U(F)U(M)A(M)G(M)GG(M)G(M)TG(M)TC(M)A(M)A(M)-idT (F=2'-F, M=2'-OMe, PHE=8-(propyl)phenyl-rA; printed 1J(F) read as U(F))
B10: SEQ ID NO: 33(12) (mixed)
RNA: B1 RNA
modifications: idT-A(M)U(M)G(M)A(M)U(F)C(F)G(M)G(M)A(M)C(M)A(M)U(M)AAC(M)U(F)A(M)A(M)U(M)TA(M)G(M)GG(M)G(M)TG(M)U(M)C(M)A(M)A(M)-idT (F=2'-F, M=2'-OMe)
B11: SEQ ID NO: 33(3) (mixed)
RNA: B1 RNA
modifications: idT-A(PHE)U(M)G(M)A(M)U(F)C(F)G(M)G(M)A(M)C(M)A(M)U(M)AAC(M)U(F)A(M)A(M)U(F)U(M)A(M)G(M)GG(M)G(M)TG(M)U(M)C(M)A(M)A(M)-idT (F=2'-F, M=2'-OMe, PHE=8-(propyl)phenyl-rA)
B12: SEQ ID NO: 33(5) (mixed)
RNA: B1 RNA
modifications: idT-A(PHE)U(M)G(M)A(M)U(F)C(F)G(M)G(M)A(M)C(F)A(M)U(M)AAC(M)U(F)A(M)A(M)U(F)U(M)A(M)G(M)GG(M)G(M)TG(M)U(M)C(M)A(M)A(M)-idT (F=2'-F, M=2'-OMe, PHE=8-(propyl)phenyl-rA)
B13: SEQ ID NO: 33(7) (mixed)
RNA: B1 RNA
modifications: idT-A(M)U(M)G(M)A(M)U(F)C(F)G(M)G(M)A(M)C(M)A(M)U(M)A(M)AC(M)U(F)A(M)A(M)U(M)U(M)A(M)G(M)GG(M)G(M)TG(M)U(M)C(M)A(M)A(M)-idT (F=2'-F, M=2'-OMe)
B14: SEQ ID NO: 33(17) (mixed)
RNA: B1 RNA
modifications: idT-A(PHE)U(M)G(M)A(M)U(F)C(F)G(M)G(M)A(M)C(M)A(M)U(M)AAC(M)U(F)A(M)A(M)U(M)U(M)A(M)G(M)GG(M)G(M)TG(M)U(M)C(M)A(M)A(M)-idT (F=2'-F, M=2'-OMe, PHE=8-(propyl)phenyl-rA)

The first data set has as its target T1, chymase (native, human skin mast cell). In words: inhibition; angiotensin I substrate. As to conditions: tags: Calbiochem Human Skin. The method, then:
(§1) The total volume of solution for an enzyme reaction in the assay was set to 50 μL, and the reaction was performed in solution C buffer. At first, native (manufactured by Calbiochem) was diluted with solution C to give 5 μL thereof. Here, the native is chymase purified from human skin mast cell. The nucleic acid was serially diluted with solution C at a concentration of 0.0027-2 μM to give 25 μL thereof. The chymase solution (5 μL) and the nucleic acid solution (25 μL) were mixed, and the mixture was incubated at 37° C. for 5 min. On the other hand, […] angiotensin I (manufactured by PEPTIDE […], INC.) was prepared in solution C to give 20 μL thereof, which was incubated at 37° C. for 5 min. The angiotensin I solution was added to a mixture of chymase and nucleic acid to start an enzyme reaction. The final chymase concentration of the reaction solution was 0.5 nM, and the final substrate concentration was 50 μM. After reaction at 37° C. for 90 min, ice-cooled 30% trichloroacetic acid solution (25 μL) was added to quench the reaction. The whole mixture was centrifuged at 4° C., 14000 rpm for 10 min, and the supernatant (30 μL) was used for the next fluorescence induction reaction.
(§2) The above-mentioned supernatant (30 μL) was added to a 96 well plate (black, manufactured by Costar), a solution (15 μL) of 2% o-phthalaldehyde (manufactured by SIGMA) in methanol and 0.3M NaOH solution (170 μL) were added to each well, and the mixture was incubated at room temperature for 10 min. Then, 3M HCl solution (25 μL) was added to quench the reaction. The plate was set on a microplate reader SpectraMax190 (manufactured by Molecular device) and the fluorescence intensity was measured at an excitation wavelength of 355 nm and a fluorescence wavelength of 460 nm.
All nucleic acids of SEQ ID NO: 33(1)-33(18) were prepared by chemical synthesis. The aptamers shown by these sequences were measured by a method similar to the inhibitory activity evaluation method for chymase inhibitory activity shown in Example 1 by using angiotensin I as a substrate. In the Table, the IC₅₀ value is a mean of 2 or 3 measurements.
In general, IC50 refers to the point on the concentration scale where inhibition reaches its midpoint. With B1, the IC50 was found to be 51 pM.
Same read-out and setting: to B2 belongs 78 pM.
Still for that read-out and setting: to B3 belongs 71 pM; to B4, 63 pM; to B5, 53 pM.
On the same count and under the same terms, next, B6: 75 pM; B7: 69 pM; B8: 61 pM.
B9 had an IC50 of 72 pM.
Still for that read-out and setting: to B10 belongs 48 pM.
B11 came in with an IC50 of 71 pM.
The same measure, in the same setting: next, B12: 76 pM; B13: 71 pM; B14: 38 pM.

A further data set has the same target. Nature of the data set: inhibition; angiotensin I substrate. As to conditions: tags: Calbiochem Human Skin. This is another data set of the same source. The method, then:
as §1, §2
The nucleic acids of SEQ ID NO: 11-20 were all produced by chemical synthesis. In the evaluation of SEQ ID NO: 11-20, a method similar to the evaluation method of inhibitory activity against chymase shown in Example 1 by using angiotensin I as a substrate was used for measurement. […] The IC₅₀ value is a mean of 2 or 3 measurements.
For the molecule GAUGAUCGGACAUAACAUUGUUGGGGUGUCAAGCC (ssRNA, 2'-F pyrimidines (U, C); purines 2'-OH) [SEQ ID NO: 15], the half-inhibitory concentration (IC50) is 1400 pM.
UGAUCGGACAUAACAUUGUUGGGGUGUCAA (ssRNA, 2'-F pyrimidines (U, C); purines 2'-OH) [SEQ ID NO: 18] registered an IC50 of 2100 pM. This IC50 is about 1.5-fold higher than that of the molecule before.
GGGUCAGAUGAUCGGACAUAACAUUGUUGGGGUGUCAAGGCCC (ssRNA, 2'-F pyrimidines (U, C); purines 2'-OH) [SEQ ID NO: 11] returned a half-maximal inhibitory concentration (IC50) of 54700 pM.
On the same count and under the same terms, next, GAUGAUCGGACAUAACAUUGUUGGGGUGUCAA (ssRNA, 2'-F pyrimidines (U, C); purines 2'-OH) [SEQ ID NO: 17]: 1400 pM; GAUGAUCGGACAUAACAUUGUUGGGGUGUCA (ssRNA, 2'-F pyrimidines (U, C); purines 2'-OH) [SEQ ID NO: 20]: 1800 pM.
Same read-out and setting: to GGCAGAUGAUCGGACAUAACAUUGUUGGGGUGUCAA (ssRNA, 2'-F pyrimidines (U, C); purines 2'-OH) [SEQ ID NO: 16] belongs 2000 pM.
Same read-out and setting: to GGCAGAUGAUCGGACAUAACAUUGUUGGGGUGUCAAGCC (ssRNA, 2'-F pyrimidines (U, C); purines 2'-OH) [SEQ ID NO: 14] belongs 6800 pM; to AUCGGACAUAACAUUGUUGGGGUGUCAA (ssRNA, 2'-F pyrimidines (U, C); purines 2'-OH) [SEQ ID NO: 19], 14400 pM.
